Data reported in PMC8191316, “Structural basis for CD97 recognition of the decay-accelerating factor CD55 suggests mechanosensitive activation of adhesion GPCRs” (The Journal of Biological Chemistry, 2021).
Each block holds one molecule with its values, some of them ahead of it.

B1: CD55 SCR1–4 domains (35–285), His-tagged (domain or fragment)
chain: DCGLPPDVPNAQPALEGRTSFPEDTVITYKCEESFVKIPGEKDSVICLKGSQWSDIEEFCNRSCEVPTRLNSASLKQPYITQNYFPVGTVVEYECRPGYRREPSLSPKLTCLQNLKWSTAVEFCKKKSCPNPGEIRNGQIDVPGGILFGATISFSCNTGYKLFGSTSSFCLISGSSVQWSDPLPECREIYCPAPPQIDNGIIQGERDHYGYRQSVTYACNKGFTMIGEHSIYCTVNNDEGEWSGPPPECRG

Tests used:
[1] = molecular target: CD55 SCR1–4 domains (35–285), His-tagged (human) (UniProt P08174); assay: SPR; Biacore T200; His-tagged CD55 immobilized on nickel coated NTA chip; CD97 (WT, mutants) or EMR2 without His-tag injected at 50 μl/min for 2 min; 20 mM Tris, pH 7.5, 200 mM NaCl, 2 mM CaCl2, 0.05% Tween 20
[2] = molecular target: T1, CD97 EGF_(1,2,5) fragment D81A, without His-tag (human, UniProt P48960-2 21-165, D81A); assay: SPR
T1 sequence: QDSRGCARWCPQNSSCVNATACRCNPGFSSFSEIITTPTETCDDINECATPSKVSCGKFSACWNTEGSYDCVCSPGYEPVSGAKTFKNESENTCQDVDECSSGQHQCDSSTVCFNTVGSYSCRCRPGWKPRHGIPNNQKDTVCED

[3] = molecular target: T2, CD97 EGF_(1,2,5) fragment D63L, without His-tag (human, UniProt P48960-2 21-165, D63L); assay: SPR
T2 sequence: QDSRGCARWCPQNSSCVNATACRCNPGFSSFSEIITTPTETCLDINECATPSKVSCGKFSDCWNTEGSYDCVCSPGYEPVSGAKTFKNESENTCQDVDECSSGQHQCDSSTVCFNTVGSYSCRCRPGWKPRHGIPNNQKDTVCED

[4] = molecular target: T3, CD97 EGF_(1,2,5) fragment V137A, without His-tag (human, UniProt P48960-2 21-165, V137A); assay: SPR
T3 sequence: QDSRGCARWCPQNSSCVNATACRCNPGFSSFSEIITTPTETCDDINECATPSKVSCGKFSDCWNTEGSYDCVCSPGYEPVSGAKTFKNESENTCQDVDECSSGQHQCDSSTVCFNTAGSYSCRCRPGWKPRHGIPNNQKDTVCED

[5] = molecular target: T4, CD97 EGF_(1,2,5) fragment E86A, without His-tag (human, UniProt P48960-2 21-165, E86A); assay: SPR
T4 sequence: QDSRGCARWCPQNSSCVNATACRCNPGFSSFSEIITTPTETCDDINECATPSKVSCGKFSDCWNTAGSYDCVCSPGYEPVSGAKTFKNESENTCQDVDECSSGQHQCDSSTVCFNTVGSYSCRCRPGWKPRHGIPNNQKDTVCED

[6] = molecular target: B1; assay: SPR
[7] = molecular target: T5, CD55 SCR1–4 domains (35–285), His-tagged (human, UniProt P08174 35-285); assay: SPR; Biacore T200; His-tagged CD55 immobilized on nickel coated NTA chip; CD97 (WT, mutants) or EMR2 without His-tag injected at 50 μl/min for 2 min; 20 mM Tris, pH 7.5, 200 mM NaCl, 2 mM CaCl2, 0.05% Tween 20; settings: both partners purified
T5 construct: CD55 (complement decay-accelerating factor), human, UniProt P08174, SCR1–4 domains, residues 35–285; Vector pLEXm with N-terminal signal peptide; codon-optimized gene; In the crystal and SAXS rows it stood as the C-terminal part of the chimera m9; also called decay-accelerating factor; not shown: His6, C-terminal, kept
T5 sequence (looked up): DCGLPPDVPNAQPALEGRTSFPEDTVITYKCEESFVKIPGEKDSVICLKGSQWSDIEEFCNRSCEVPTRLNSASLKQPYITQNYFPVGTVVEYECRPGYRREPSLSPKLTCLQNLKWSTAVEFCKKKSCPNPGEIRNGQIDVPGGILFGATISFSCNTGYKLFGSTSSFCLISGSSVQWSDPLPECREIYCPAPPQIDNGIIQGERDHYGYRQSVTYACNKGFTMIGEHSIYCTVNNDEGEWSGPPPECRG

Molecule: B1
koff [2]: 0.00122 s⁻¹ | koff [3]: 0.000968 s⁻¹ | koff [4]: 0.00163 s⁻¹ | koff [5]: 0.00141 s⁻¹

B3: CD97 EGF_(1,2,5) fragment D63L, without His-tag (domain or fragment, human, UniProt P48960-2 21-165, looked up)
chain: QDSRGCARWCPQNSSCVNATACRCNPGFSSFSEIITTPTETCLDINECATPSKVSCGKFSDCWNTEGSYDCVCSPGYEPVSGAKTFKNESENTCQDVDECSSGQHQCDSSTVCFNTVGSYSCRCRPGWKPRHGIPNNQKDTVCED
notes: CD97, human, EGF_(1,2,5) isoform fragment, residues 21–165, with D63L; Made by overlapping PCR, cloned to the same vector as m3; not shown: His6, C-terminal, cleaved
Kd [7]: 85.2 µM

B6: CD97 EGF_(1,2,5) fragment D81A, without His-tag (domain or fragment, human, UniProt P48960-2 21-165, looked up)
chain: QDSRGCARWCPQNSSCVNATACRCNPGFSSFSEIITTPTETCDDINECATPSKVSCGKFSACWNTEGSYDCVCSPGYEPVSGAKTFKNESENTCQDVDECSSGQHQCDSSTVCFNTVGSYSCRCRPGWKPRHGIPNNQKDTVCED
notes: CD97, human, EGF_(1,2,5) isoform fragment, residues 21–165, with D81A; Made by overlapping PCR, cloned to the same vector as m3; not shown: His6, C-terminal, cleaved
Kd [7]: 66.4 µM

Second part, the molecule after the results:

Kd [1]: 3.2 µM | koff [1]: 0.00173 s⁻¹ | kon [1]: 546 M⁻¹ s⁻¹
Molecule: CD97 EGF_(1,2,5) fragment, WT, without His-tag (SPR construct with TEV site) (from UniProt P48960-2 21-165) (domain or fragment)

koff [6]: 0.00149 s⁻¹ | Kd [1]: 43 µM
B2: EMR2 EGF_(1,2,5) (24–168) fragment, His6 removed (domain or fragment)
chain: QDSRGCARWCPQDSSCVNATACRCNPGFSSFSEIITTPMETCDDINECATLSKVSCGKFSDCWNTEGSYDCVCSPGYEPVSGAKTFKNESENTCQDVDECSSGQHQCDSSTVCFNTVGSYSCRCRPGWKPRHGIPNNQKDTVCED

Kd [7]: 25.3 µM
B4: CD97 EGF_(1,2,5) fragment V137A, without His-tag (domain or fragment, human, UniProt P48960-2 21-165, looked up)
chain: QDSRGCARWCPQNSSCVNATACRCNPGFSSFSEIITTPTETCDDINECATPSKVSCGKFSDCWNTEGSYDCVCSPGYEPVSGAKTFKNESENTCQDVDECSSGQHQCDSSTVCFNTAGSYSCRCRPGWKPRHGIPNNQKDTVCED
notes: CD97, human, EGF_(1,2,5) isoform fragment, residues 21–165, with V137A (in EGF5); Made by overlapping PCR, cloned to the same vector as m3; also called V137A mutant; not shown: His6, C-terminal, cleaved

Kd [7]: 17.6 µM
B5: CD97 EGF_(1,2,5) fragment E86A, without His-tag (domain or fragment, human, UniProt P48960-2 21-165, looked up)
chain: QDSRGCARWCPQNSSCVNATACRCNPGFSSFSEIITTPTETCDDINECATPSKVSCGKFSDCWNTAGSYDCVCSPGYEPVSGAKTFKNESENTCQDVDECSSGQHQCDSSTVCFNTVGSYSCRCRPGWKPRHGIPNNQKDTVCED
notes: CD97, human, EGF_(1,2,5) isoform fragment, residues 21–165, with E86A; Made by overlapping PCR, cloned to the same vector as m3; not shown: His6, C-terminal, cleaved
